Experimental findings from US20170152308A1 (Biogen, published 2017) are described below.

Like-named read-outs stand apart in the source and are kept apart here.

The target in test [1] is T1, recombinant full-length His-tagged human TDP-43 (2-414) (human, UniProt Q13148 2-414).
T1 construct: Amino terminal His tag, made in E. coli, purified in 8 M urea; also called full length TDP-43; full-length TDP-43
Nature of the test: direct ELISA, coated antigen. How it is done: (§1) The half maximal effective concentration (EC₅₀) of the human-derived TDP-43-specific antibodies for human TDP-43 and their target target-specificity was determined substantially as described in Example 2 above. Briefly, 96 well microplates (Corning) were coated with recombinant full length TDP-43 (Biogen Idec, USA), Escherichia coli extract and BSA (Sigma, Buchs, Switzerland), diluted to a concentration of 5 μg/ml in carbonate ELISA coating buffer (pH 9.6) overnight at 4° C. […] Non-specific binding sites were blocked for 1 hr. at room temperature with PBS containing 2% BSA (Sigma, Buchs, Switzerland). Human TDP-43-specific antibodies were diluted to the indicated concentrations and incubated 1 hr. at room temperature. Binding was determined using a donkey anti-human IgGγ-specific secondary antibody conjugated with HRP (Jackson ImmunoResearch, USA), followed by measurement of HRP activity in a standard colorimetric assay. EC₅₀ values were estimated by a non-linear regression using GraphPad Prism software (San Diego, USA).
(An ELISA detects its analyte on a solid surface through an enzyme-linked reagent.)

Test [2] addresses T1, recombinant full-length His-tagged …. The test is described as follows: direct ELISA, coated antigen. Here is the method:
as §1
This is another data set of the same source.

Test [3] deals with T2, His-huTDP-43 domain I (amino acid residues 2-106) (human).
T2 construct: Amino terminal His-tagged fragment, E. coli; also called N-terminal domain
T2 chain: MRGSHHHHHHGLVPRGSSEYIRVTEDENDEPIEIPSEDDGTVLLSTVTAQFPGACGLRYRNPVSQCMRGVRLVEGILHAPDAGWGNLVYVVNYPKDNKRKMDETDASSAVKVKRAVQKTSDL
Nature of the test: Western blot, 300 ng recombinant protein per lane, primary antibody 10 nM. How it is done:
(§2) Non-specific binding sites were blocked for 1 hr. at room temperature with PBST containing 2% BSA (Sigma, Buchs, Switzerland). Blots were incubated overnight with primary antibodies (10 nM) followed by either a donkey anti-human IgGγ-specific secondary antibody conjugated with HRP (Jackson ImmunoResearch, USA) or a goat-anti mouse IgG (H+L)-specific secondary antibody conjugated with HRP (Jackson ImmunoResearch, USA). Blots were developed using ECL and ImageQuant 350 detection (GE Healthcare, Otelfingen, Switzerland).

Test [4] addresses T3, His-huTDP-43 domain II (amino acid residues 99-204) (human).
T3 construct: Amino terminal His-tagged fragment, E. coli
T3 chain: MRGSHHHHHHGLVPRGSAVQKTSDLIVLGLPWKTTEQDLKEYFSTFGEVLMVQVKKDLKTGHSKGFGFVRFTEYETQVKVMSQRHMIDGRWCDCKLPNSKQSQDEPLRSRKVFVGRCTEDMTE
The description is as above. How it is done: as §2

Test [5] concerns the target T4, His-huTDP-43 domain III (amino acid residues 183-273) (human).
T4 construct: Amino terminal His-tagged fragment, E. coli
T4 chain: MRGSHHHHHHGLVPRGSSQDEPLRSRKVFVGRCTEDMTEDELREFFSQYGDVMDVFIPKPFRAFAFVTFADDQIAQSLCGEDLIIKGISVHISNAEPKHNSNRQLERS
The description is as above. Here is the method: as §2

The target in test [6] is T5, 6xHis-SUMO-TDP-43 (1-414), properly folded full length (human, UniProt Q13148 1-414).
T5 construct: Purified with KSCN and arginine, monomeric; captured on the plate by an anti-6xHis antibody; also called folded full-length TDP-43; 6xHis/SUMO tagged full length TDP-43; not shown: N-terminal 6xHis and SUMO tags from a modified pET19-b vector
T5 sequence (Q13148 whole entry): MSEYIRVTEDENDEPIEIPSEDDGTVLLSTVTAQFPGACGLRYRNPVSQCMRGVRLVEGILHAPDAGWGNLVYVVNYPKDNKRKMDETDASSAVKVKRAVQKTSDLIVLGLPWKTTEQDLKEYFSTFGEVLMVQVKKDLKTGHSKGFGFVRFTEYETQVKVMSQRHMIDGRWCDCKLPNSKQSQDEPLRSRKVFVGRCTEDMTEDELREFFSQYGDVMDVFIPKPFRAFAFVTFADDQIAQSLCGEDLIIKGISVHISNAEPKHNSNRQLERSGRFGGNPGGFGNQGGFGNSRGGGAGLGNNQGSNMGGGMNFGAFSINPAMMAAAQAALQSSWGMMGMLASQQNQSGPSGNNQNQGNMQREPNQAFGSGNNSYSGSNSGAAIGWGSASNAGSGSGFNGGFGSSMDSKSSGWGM
The test is described as follows: capture ELISA, antigen held by anti-6xHis antibody. Here is the method: (§3) Non-specific binding sites were blocked for 1 hr at RT with PBS containing 1% BSA (Sigma) and 0.05% Tween-20 (Fisher Scientific). 6×His-SUMO-TDP43 proteins at a concentration of 1.7 μM were allowed to bind to antibody-coated plates for 1 hr at RT in PBS buffer containing 1% BSA, 300 mM arginine and 0.1% PEG 5000, pH 7.5. Plates were incubated for 1 hr at RT with human antibodies of present invention, titrated in a three-fold dilution series, followed by HRP conjugated anti-human IgG Fc γ (Jackson ImmunoResearch) in PBST containing 1% BSA. HRP activity was measured in a standard colorimetric assay. EC₅₀ values were calculated using a four-parameter logistic curve fit on Softmax pro software (Molecular Devices).
(§4) We measured the binding affinity of the human-derived TDP-43 specific antibodies provided herein to properly folded 6×His/SUMO tagged TDP-43 using a capture ELISA in which native TDP-43 was immobilized without direct adsorption on the surface of the ELISA plate. This was achieved by immobilizing an anti 6×His antibody which then captured native TDP-43. […] After this immobilization step, binding by human antibodies was tested in regular buffers without interference of TDP-43 aggregation.

The target in test [7] is T6, 6xHis-SUMO-TDP-43 (220-414) (human, UniProt Q13148 220-414).
T6 construct: Captured on the plate by an anti-6xHis antibody; also called 6xHis/SUMO tagged truncated TDP-43; not shown: N-terminal 6xHis and SUMO tags from a modified pET19-b vector
T6 sequence (Q13148 220-414): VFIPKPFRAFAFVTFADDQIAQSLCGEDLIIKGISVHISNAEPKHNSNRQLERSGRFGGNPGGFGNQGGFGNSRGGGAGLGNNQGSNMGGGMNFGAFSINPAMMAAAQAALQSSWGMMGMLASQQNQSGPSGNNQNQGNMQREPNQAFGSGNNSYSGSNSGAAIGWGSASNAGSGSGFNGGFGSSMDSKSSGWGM
Nature of the test: capture ELISA, antigen held by anti-6xHis antibody. How it is done:
as §3, §4

The target in the next test is T7, BSA (bovine, UniProt P02769).
T7 construct: control coating in the EC50 ELISA; also called bovine serum albumin (Sigma, Buchs, Switzerland)
T7 sequence (P02769 25-607 limits assumed): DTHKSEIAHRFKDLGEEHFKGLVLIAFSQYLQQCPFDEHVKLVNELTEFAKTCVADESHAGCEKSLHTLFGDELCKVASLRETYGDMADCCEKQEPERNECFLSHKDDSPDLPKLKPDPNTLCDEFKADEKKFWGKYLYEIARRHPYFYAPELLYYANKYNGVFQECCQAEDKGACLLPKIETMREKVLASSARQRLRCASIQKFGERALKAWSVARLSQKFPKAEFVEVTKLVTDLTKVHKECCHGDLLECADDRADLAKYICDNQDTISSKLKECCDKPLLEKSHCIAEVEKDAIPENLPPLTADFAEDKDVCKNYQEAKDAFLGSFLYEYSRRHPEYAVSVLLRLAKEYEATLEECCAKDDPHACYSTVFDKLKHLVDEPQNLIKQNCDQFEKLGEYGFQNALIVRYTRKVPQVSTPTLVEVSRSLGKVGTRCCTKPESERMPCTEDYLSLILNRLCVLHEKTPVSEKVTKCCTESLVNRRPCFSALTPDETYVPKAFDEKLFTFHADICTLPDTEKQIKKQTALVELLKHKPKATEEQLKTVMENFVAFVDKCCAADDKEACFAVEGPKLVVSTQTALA
The test is described as follows: direct ELISA, BSA coated at 5 ug/ml as control, OD 450. How it is done:
as §1, with “To determine the” for “The”, “to evaluate target-specificity,” for “their target target-specificity was determined substantially as described in Example 2 above. Briefly,”
The half maximal effective concentration (EC₅₀) of the human-derived TDP-43-specific antibodies for human TDP-43 and their target target-specificity was determined substantially as described in Example 2 above. […]

In test [8] the target is T2, His-huTDP-43 domain I (amino acid …). The test is described as follows: direct ELISA, TDP-43 fragments coated at 6.6 ug/ml, OD 450. How it is done: (§5) Non-specific binding sites were blocked for 1 hr. at room temperature with PBST containing 2% BSA (Sigma, Buchs, Switzerland). Antibodies were incubated 1 hr. at room temperature. Binding was determined using either a donkey anti-human IgGγ-specific antibody conjugated with HRP (Jackson ImmunoResearch, USA) or a goat-anti mouse IgG (H+L)-specific secondary antibody conjugated with HRP (Jackson ImmunoResearch, USA)., followed by measurement of HRP activity in a standard colorimetric assay.

For test [9], the target named is T3, His-huTDP-43 domain II (amino acid …). Described as above. Here is the method: as §5
Test [10] has as its target T4, His-huTDP-43 domain III (amino acid …). The description is as above. Here is the method:
as §5

Test [11] deals with T3, His-huTDP-43 domain II (amino acid …). Nature of the test: direct ELISA, coated antigen.
Test [12] addresses T8, His-huTDP-43 domain IV (amino acid residues 258-414) (human, UniProt Q13148 258-414).
T8 construct: Amino terminal His-tagged fragment, E. coli, solubilized in 8 M urea; also called Glycine-rich domain
The test is described as follows: direct ELISA, TDP-43 fragments coated at 6.6 ug/ml, OD 450. Here is the method: as §5

Test [13] deals with T9, TDP-43 in human FTLD-U (and ALS) patient tissue sections (human, UniProt Q13148 1-414, limits assumed).
T9 construct: Target of immunohistochemistry; the forms present are not defined; also called pathologic TDP-43; cytoplasmic, nuclear, neuritic TDP-43 in FTLD-U case tissue
T9 sequence (Q13148 whole entry): as the sequence (Q13148 whole entry) above
The test is described as follows: immunohistochemistry, FTLD-U case hippocampus.

As a reminder, the EC50 is the concentration that produces a half-maximal response.

T8 sequence (Q13148 other isoform, or with tags, fused parts or gaps limits assumed): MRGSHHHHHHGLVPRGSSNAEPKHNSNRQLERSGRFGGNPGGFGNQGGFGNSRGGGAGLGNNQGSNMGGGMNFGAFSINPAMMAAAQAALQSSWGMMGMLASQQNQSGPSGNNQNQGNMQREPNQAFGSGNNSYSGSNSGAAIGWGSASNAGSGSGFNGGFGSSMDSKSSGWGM

B1: NI-205.21G1 (antibody, human IgG1, V domains shown)
VH: QVQLVESGGGVVQPGMSLRLSCAASGFSFSSHGMHWVRQTPGKGLEWLAVISYDASNKSYADSVKGRFTISRDNSKKTLYLQMDSLRVEDTALYYCANAFSSSASGGYWGQGTLVTVSS
VL: DVVMTQSPLSLPVTLGQPASISCRSSQSLVHSDGVTYLNWFQQRPGQSPRRLIYKVSNRDSGVPDRFSGSGSGTDFTLEISRVEAEDVGIYYCMQGTHWPPWTFGQGTKVEIK
notes: Human-derived; also called NI-21G1
For the molecule B1, the EC50 in test [1] is 4.1 nM; in [2], 4.1 nM; in test [6], 4.4 nM; in test [7], 0.33 nM. For the same molecule, the binding result in [3] is “no binding (tested: 10 nM)”; in test [4] it was “no binding (tested: 10 nM)”; in test [5], “no binding (tested: 10 nM)”; in the test with BSA, “no binding (tested: about 4x10^5 pM)”.

B2: NI-205.44B2 (antibody, human IgG1, V domains shown)
VH: QVQLQESGPGVVKPSQTLSLTCTVSGVSVGSGDYYWSWIRHHPGKGLEWIGYISFFGSSNYNPSLKGRVSMSVDTSNNQFSLNLKSVTAADTAVYFCATGNAYSFWGQGTMVTVSS
VL: QSALTQPASVSGSPGQSITISCTGTSSDIGTHNLVSWYQQHPGKAPKLIIYEIFERPSGISSRFTGSKSGNTASLTISGLQAEDEADYFCCAYSVTVIFGGGTKLTVL
notes: Human-derived; also called NI205.44B22
In the case of B2, the values for the EC50 in test [1], in [6] and in test [7] were 2.8 nM, over 125 nM and 33.5 nM, respectively. The binding result in [8], in [9] and in test [10] was “no binding” throughout.

B3: NI-205.1A9 (antibody, human IgG1, V domains shown)
VH: QVQLVQSGSELKKPGASVKVSCKASGYTFTSYAMNWVRQAPGQGLEWMGWINTNTGNPTYAQGFTGRFVFSLDTSVSTAYLQISSLKAEDTAVYYCARDRIDGSSWSSWFDPWGQGTLVTVSS
VL: QSVLTQPPSVSGAPGQRVTISCTGSSSNIGAGYDVHWYQQLPGTAPKLLIYGNSNRPSGVPDRFSGSKSGTSASLAITGLQAEDEADYYCQSFDSSLSSSVFGGGTKLTVL
notes: Human-derived
With B3, the EC50 in test [1] is 1 nM; in test [6], over 98 nM. The binding result in test [7] is listed as “no binding”; in [11], “binds”; in [12], “no binding”; in [8], “no binding”; in test [10], “no binding”.

B4: NI-205.58E11 (antibody, human IgG1, V domains shown)
VH: EVQLLESGGGLVQPGGSLRLSCAASGFTFSSYSMSWVRQAPGKGLEWVATVGYGGTIYYADSVKGRFTISRDNSKNTLYLEMNSLRAEATAVYYCAKANYGGNRFGLDVWGQGTTVTVSS
VL: QSALTQPPSASGSPGQSVTISCTGTSSDVGGYNYVSWYQHQPGKAPKLMIYEVSKRPSGVPDRFSGSKSGNTASLTVSGLQAEDEADYYCSSYAGSNNLGVFGTGTEVTVL
notes: Human-derived
With B4, the binding result in [1] is listed as “no binding”; in [13], “no binding (tested: 50 nM)”; in test [6], “no binding”.
